In US20190367592A1 (AC IMMUNE, published 2019):
Where a chain is given by its changes, count along the chain named. “And” between values parts separate entries of the source, which are not always exact repeats. Equal values may be shown once.

B1: 11E10-B8 (antibody, mouse IgG2a, V domains shown)
VH: EVQLVESGGDLVKPGGSLKLSCAASGFTFRSYGMSWVRQTPDKRLEWVATISGGGSYTYYPDSVKGRFTISRDNAKNTLYLQMSSLKSEDTAMYYCAVSYDGAMDYWGQGTSVTVSS
VL: DVLMTQTPLSLPVSLGDQASISCRSSQSIVHSNGNTYLEWYLQKPGQSPKLLIYKVSNRFSGVPDRFSGSGSGTDFTLKISRVEAEDLGLYYCFQGSHVPWTFGGGTKLEIK
B2: hu125B11 HC1 + hu113F5-F7 LC3 (antibody, V domains shown)
VH: EVQLVESGGGLVQPGGSLRLSCAASRFIFSNYWMNWVRQAPGKGLEWVAQIRLKSDNYATHYAESVKGRFTISRDDSKNTVYLQMNSLRAEDTAVYYCTGGTTYWGQGTLVTVSS
VL: DIQMTQSPSSLSASVGDRVTITCKASQNVGTAVAWYQQKPGKSPKLLIYSASRRFSGVPSRFSGSGSGTDFTLTISSLQPEDFATYYCQQFSTYPYTFGQGTKVEIK
B3: hu125B11 HC1 + 125B11 LC1 (antibody, V domains shown)
VH: B2 VH
VL: B2 VL with R53I, F55Y, S56T, Y87F, S92R
B4: hu125B11 HC1 + 125B11 LC2 (antibody, V domains shown)
VH: B2 VH
VL: B2 VL with S43A, R53I, F55Y, S56T, Y87F, S92R
B5: hu125B11 HC1 + 125B11 LC3 (antibody, V domains shown)
VH: B2 VH
VL: B2 VL with R53I, F55Y, S56T, S92R
B6: hu125B11 HC1 + 125B11 LC4 (antibody, V domains shown)
VH: B2 VH
VL: B2 VL with S43A, R53I, F55Y, S56T, S92R
B7: hu125B11 HC1 + hu113F5-F7 LC1 (antibody, V domains shown)
VH: B2 VH
VL: B2 VL with Y87F
B8: hu125B11 HC1 + hu113F5-F7 LC2 (antibody, V domains shown)
VH: B2 VH
VL: B2 VL with S43A, Y87F
B9: hu125B11 HC1 + hu113F5-F7 LC4 (antibody, V domains shown)
VH: B2 VH
VL: B2 VL with S43A
B10: hu125B11 HC2 + 125B11 LC1 (antibody, V domains shown)
VH: B2 VH with D76N
VL: B2 VL with R53I, F55Y, S56T, Y87F, S92R
B11: hu125B11 HC2 + 125B11 LC2 (antibody, V domains shown)
VH: B2 VH with D76N
VL: B2 VL with S43A, R53I, F55Y, S56T, Y87F, S92R
B12: hu125B11 HC2 + 125B11 LC3 (antibody, V domains shown)
VH: B2 VH with D76N
VL: B2 VL with R53I, F55Y, S56T, S92R
B13: hu125B11 HC2 + 125B11 LC4 (antibody, V domains shown)
VH: B2 VH with D76N
VL: B2 VL with S43A, R53I, F55Y, S56T, S92R
B14: hu125B11 HC2 + hu113F5-F7 LC1 (antibody, V domains shown)
VH: B2 VH with D76N
VL: B2 VL with Y87F
B15: hu125B11 HC2 + hu113F5-F7 LC2 (antibody, V domains shown)
VH: B2 VH with D76N
VL: B2 VL with S43A, Y87F
B16: hu125B11 HC2 + hu113F5-F7 LC3 (antibody, V domains shown)
VH: B2 VH with D76N
VL: B2 VL
B17: hu125B11 HC2 + hu113F5-F7 LC4 (antibody, V domains shown)
VH: B2 VH with D76N
VL: B2 VL with S43A
B18: hu125B11 HC3 + 125B11 LC2 (antibody, V domains shown)
VH: B2 VH with V81L
VL: B2 VL with S43A, R53I, F55Y, S56T, Y87F, S92R
B19: hu125B11 HC3 + 125B11 LC3 (antibody, V domains shown)
VH: B2 VH with V81L
VL: B2 VL with R53I, F55Y, S56T, S92R
B20: hu125B11 HC3 + 125B11 LC4 (antibody, V domains shown)
VH: B2 VH with V81L
VL: B2 VL with S43A, R53I, F55Y, S56T, S92R
B21: hu125B11 HC3 + hu113F5-F7 LC1 (antibody, V domains shown)
VH: B2 VH with V81L
VL: B2 VL with Y87F
B22: hu125B11 HC3 + hu113F5-F7 LC2 (antibody, V domains shown)
VH: B2 VH with V81L
VL: B2 VL with S43A, Y87F
B23: hu125B11 HC3 + hu113F5-F7 LC3 (antibody, V domains shown)
VH: B2 VH with V81L
VL: B2 VL
B24: hu125B11 HC3 + hu113F5-F7 LC4 (antibody, V domains shown)
VH: B2 VH with V81L
VL: B2 VL with S43A
B25: hu125B11 HC4 + 125B11 LC1 (antibody, V domains shown)
VH: B2 VH with D76N, V81L
VL: B2 VL with R53I, F55Y, S56T, Y87F, S92R
B26: hu125B11 HC4 + 125B11 LC3 (antibody, V domains shown)
VH: B2 VH with D76N, V81L
VL: B2 VL with R53I, F55Y, S56T, S92R
B27: hu125B11 HC4 + hu113F5-F7 LC1 (antibody, V domains shown)
VH: B2 VH with D76N, V81L
VL: B2 VL with Y87F
B28: hu125B11 HC4 + hu113F5-F7 LC2 (antibody, V domains shown)
VH: B2 VH with D76N, V81L
VL: B2 VL with S43A, Y87F
B29: hu125B11 HC4 + hu113F5-F7 LC3 (antibody, V domains shown)
VH: B2 VH with D76N, V81L
VL: B2 VL
B30: hu125B11 HC4 + hu113F5-F7 LC4 (antibody, V domains shown)
VH: B2 VH with D76N, V81L
VL: B2 VL with S43A
B31: hu125B11 HC5 + 125B11 LC1 (antibody, V domains shown)
VH: B2 VH with W33Y
VL: B2 VL with R53I, F55Y, S56T, Y87F, S92R
B32: 26C1 (antibody, mouse IgG2a, V domains shown)
VH: EVHLQQSGAELVRSGASVKLSCTASGFNIKDYYMYWVKQRPEQGLEWIGWIDPENGDTEYFPKFQGKATMTADTSSKTAYLQLSSLTSEDTAVYYCNAWRARATNSALDYWGQGTSVTVSS
VL: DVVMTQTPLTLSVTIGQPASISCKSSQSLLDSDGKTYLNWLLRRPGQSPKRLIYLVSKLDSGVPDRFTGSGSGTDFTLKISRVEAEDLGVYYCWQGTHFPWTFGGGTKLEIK
notes: recombinant murine IgG2a/kappa; label without subclone
B33: 30G1-B2 (antibody, mouse IgG2a, V domains shown)
VH: QVQLQQSGAELVRPGASVTLSCKASGYTFTDYEMYWVKQTPVHGLEWIGAIDPETGDTAYNQKFKGKATLTADKSSNTAYMELRSLTSEDSAVYYCIRQYGNWFPYWGQGTLVTVSA
VL: DVVMTQTPLSLPVSLGDQASISCRSSQSLVHANGNTYLHWFLQKPGLSPKLLIYKVSNRFSGVPDRFSGGGSGTDFTLKITRLEAEDLGVYFCSQSTHVPFTFGSGTKLEIK
B34: 66F5-A1 (antibody, mouse IgG2a, V domains shown)
VH: QVQLQQSGAELVRPGASVTLSCKASGYTFIDYEMNWVKQTPVHGLEWIGAIDPENGGTAYNQKFKGKAIVTADKSSSTAYMELRSLTSEDSAVYYCSGPHFDYWGQGTTLTVSS
VL: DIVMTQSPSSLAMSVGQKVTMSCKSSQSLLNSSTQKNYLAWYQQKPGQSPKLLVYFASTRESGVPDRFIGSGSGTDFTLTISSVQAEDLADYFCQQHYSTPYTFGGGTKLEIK

Assays:
[1] = target: T1, recombinant human Tau monomer, 2N4R isoform (amino acids 2-441) (human, UniProt P10636-8 2-441); assay: SPR, mIgG2a captured, Tau monomer analyte, 1:1 fit
T1 construct: range 2-441; N-terminal His-tag removed with TEV protease; also called monomeric Tau
T1 sequence (P10636 other isoform, or with tags, fused parts or gaps limits assumed): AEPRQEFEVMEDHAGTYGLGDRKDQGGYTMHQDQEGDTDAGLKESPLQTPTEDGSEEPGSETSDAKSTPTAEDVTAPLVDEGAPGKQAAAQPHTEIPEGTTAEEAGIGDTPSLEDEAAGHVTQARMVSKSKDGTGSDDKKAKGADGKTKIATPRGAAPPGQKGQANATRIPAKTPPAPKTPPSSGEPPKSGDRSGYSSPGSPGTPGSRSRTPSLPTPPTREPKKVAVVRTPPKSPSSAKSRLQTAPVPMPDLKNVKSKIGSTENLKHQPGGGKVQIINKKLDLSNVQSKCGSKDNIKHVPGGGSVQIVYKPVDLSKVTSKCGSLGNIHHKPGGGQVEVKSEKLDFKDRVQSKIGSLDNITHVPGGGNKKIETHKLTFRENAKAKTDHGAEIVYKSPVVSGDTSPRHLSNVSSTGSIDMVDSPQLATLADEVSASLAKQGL
Source text: Antibody heavy and light chains were constructed via gene synthesis and subcloning of the resulting DNA into murine IgG2a (heavy chain) and murine kappa (light chain) mammalian expression vectors. Antibodies were expressed in CHO or 293T cells by transient co-transfection of the heavy chain and light chain plasmids and were purified with affinity resin MabSelectSure (GE Healthcare Life Sciences). Purified recombinant antibodies were screened for binding to Tau monomer protein on a Biacore T200 surface plasmon resonance instrument using a mouse IgG capture kit and a Series S CM5 chip. Antibodies in mIgG2a format diluted in 10 mM HEPES pH7.4, 150 mM NaCl, 0.05% Tween 20 (running buffer, HBSP) were captured for 30 or 45 seconds at a concentration of 1 μg/ml (antibodies 26C1, 94B2-C1, 52F6-F11.v1, 52F6-F11.v2, 11E10-B8, 55E7-F11, 125B1-H3, 123E9-A1, 30G1-B2, 66F5-A1, 89F4-A1, 93A8-D2 and 126F11-G11) or for 70 or 150 seconds at a concentration of 0.1 μg/ml (antibodies 19H6-F7, 3A4-H4, 54C1-H11 and 37D3-H9) using a flow rate of 10 μl/min. […] Association and dissociation times were monitored for 180-480 seconds and for 300-600 seconds respectively. Antibody 37D3-H9 was selected for further analysis due to the high affinity (Table 6) and the absence of NXS/T glycosylation motifs in the CDRs.

[2] = target: T1, recombinant human Tau monomer, 2N4R …; assay: SPR screen, hIgG captured, Tau monomer analyte
Source text: Antibody 125B11-H3 was humanized onto VH3 and Vκ1 consensus frameworks. The heavy chain graft included murine residues at position 78 (Kabat numbering system). The Vκ1 graft included murine residues in framework positions 43 and 87. The light chain of 113F5-F7 was also humanized onto the Vκ1 framework, with additional murine residues at framework positions 43 and 87. Humanized variant heavy chains (125B11) and light chains (125B11 and 113F5-F7) were co-transfected in multiple combinations and purified in 96-well format as described above. Humanized variants were then screened for affinity for human Tau monomer using the Biacore human IgG capture kit, a Series S CM5 chip and a Biacore T200 instrument. Antibodies were diluted to 2 μg/ml and captured for 15 seconds at 10 μl/min. Association and dissociation of 0, 100 and 500 nM human Tau monomer in HBSP was monitored for 180s and 300s respectively at a flow rate of 40 μl/min. A 1:1 binding model was applied to the results (Table 9).

Binder	Kd [2]	also measured
B1		Kd [1]: 108 nM; koff [1]: 0.02 s⁻¹; kon [1]: 200000 M⁻¹ s⁻¹
B2	61 nM	
B3	16 nM and 19 nM	
B4	20 nM	
B5	21 nM	
B6	23 nM	
B7	57 nM	
B8	67 nM	
B9	71 nM	
B10	18 nM	
B11	20 nM	
B12	23 nM	
B13	22 nM	
B14	61 nM	
B15	68 nM	
B16	64 nM	
B17	77 nM	

Binder	Kd [2]	also measured
B18	19 nM	
B19	20 nM	
B20	20 nM	
B21	54 nM	
B22	55 nM	
B23	54 nM	
B24	65 nM	
B25	15 nM	
B26	15 nM	
B27	44 nM	
B28	47 nM	
B29	47 nM	
B30	51 nM	
B31	85 nM	
B32		Kd [1]: 17 nM; koff [1]: 0.0007 s⁻¹; kon [1]: 40000 M⁻¹ s⁻¹
B33		Kd [1]: 20 nM; koff [1]: 0.008 s⁻¹; kon [1]: 400000 M⁻¹ s⁻¹
B34		Kd [1]: 105 nM; koff [1]: 0.008 s⁻¹; kon [1]: 80000 M⁻¹ s⁻¹
